Laboratory results as given in PMC9491720 (Science Advances, 2022).

Target: Flag-tagged PKM2 (pyruvate kinase M2) (human, UniProt P14618-1 1-531, labeled with fluorescence (in the MST assay only))
Assay: MST

Sequence of Flag-tagged PKM2 (pyruvate kinase M2) (P14618 whole entry): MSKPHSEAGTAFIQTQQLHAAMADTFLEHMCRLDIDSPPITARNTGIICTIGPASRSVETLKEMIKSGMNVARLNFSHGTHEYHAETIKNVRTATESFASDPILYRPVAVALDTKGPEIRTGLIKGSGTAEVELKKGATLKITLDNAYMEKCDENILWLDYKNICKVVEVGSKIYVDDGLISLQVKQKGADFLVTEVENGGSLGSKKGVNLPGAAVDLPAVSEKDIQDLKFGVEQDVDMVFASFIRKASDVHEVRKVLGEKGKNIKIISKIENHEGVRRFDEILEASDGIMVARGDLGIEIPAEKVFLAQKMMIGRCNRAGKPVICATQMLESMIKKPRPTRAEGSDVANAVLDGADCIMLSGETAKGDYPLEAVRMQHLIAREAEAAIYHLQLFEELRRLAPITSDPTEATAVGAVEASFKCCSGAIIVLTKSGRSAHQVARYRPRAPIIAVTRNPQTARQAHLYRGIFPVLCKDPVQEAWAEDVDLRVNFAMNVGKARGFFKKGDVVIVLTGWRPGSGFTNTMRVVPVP

B1: recombinant His-tagged Smad7 (natural protein)
chain: MFRTKRSALVRRLWRSRAPGGEDEEEGAGGGGGGGELRGEGATDSRAHGAGGGGPGRAGCCLGKAVRGAKGHHHPHPPAAGAGAAGGAEADLKALTHSVLKKLKERQLELLLQAVESRGGTRTACLLLPGRLDCRLGPGAPAGAQPAQPPSSYSLPLLLCKVFRWPDLRHSSEVKRLCCCESYGKINPELVCCNPHHLSRLCELESPPPPYSRYPMDFLKPTADCPDAVPSSAETGGTNYLAPGGLSDSQLLLEPGDRSHWCVVAYWEEKTRVGRLYCVQEPSLDIFYDLPQGNGFCLGQLNSDNKSQLVQKVRSKIGCGIQLTREVDGVWVYNRSSYPIFIKSATLDNPDSRTLLVHKVFPGFSIKAFDYEKAYSLQRPNDHEFMQQPWTGFTVQISFVKGWGQCYTRQFISSCPCWLEVIFNSR
B1 was tested, and the Kd was 346 nM.
